For one assay, the target named is T1, mSlo3 (Mus musculus, UniProt O54982, V141G).
T1 construct: A full-length mSlo3 cDNA was cloned into pBSC-MXT; expressed in transfected cells; host or cells: Xenopus oocytes (cRNA injection)
T1 sequence (O54982 with tags, fused parts or gaps V141G limits assumed): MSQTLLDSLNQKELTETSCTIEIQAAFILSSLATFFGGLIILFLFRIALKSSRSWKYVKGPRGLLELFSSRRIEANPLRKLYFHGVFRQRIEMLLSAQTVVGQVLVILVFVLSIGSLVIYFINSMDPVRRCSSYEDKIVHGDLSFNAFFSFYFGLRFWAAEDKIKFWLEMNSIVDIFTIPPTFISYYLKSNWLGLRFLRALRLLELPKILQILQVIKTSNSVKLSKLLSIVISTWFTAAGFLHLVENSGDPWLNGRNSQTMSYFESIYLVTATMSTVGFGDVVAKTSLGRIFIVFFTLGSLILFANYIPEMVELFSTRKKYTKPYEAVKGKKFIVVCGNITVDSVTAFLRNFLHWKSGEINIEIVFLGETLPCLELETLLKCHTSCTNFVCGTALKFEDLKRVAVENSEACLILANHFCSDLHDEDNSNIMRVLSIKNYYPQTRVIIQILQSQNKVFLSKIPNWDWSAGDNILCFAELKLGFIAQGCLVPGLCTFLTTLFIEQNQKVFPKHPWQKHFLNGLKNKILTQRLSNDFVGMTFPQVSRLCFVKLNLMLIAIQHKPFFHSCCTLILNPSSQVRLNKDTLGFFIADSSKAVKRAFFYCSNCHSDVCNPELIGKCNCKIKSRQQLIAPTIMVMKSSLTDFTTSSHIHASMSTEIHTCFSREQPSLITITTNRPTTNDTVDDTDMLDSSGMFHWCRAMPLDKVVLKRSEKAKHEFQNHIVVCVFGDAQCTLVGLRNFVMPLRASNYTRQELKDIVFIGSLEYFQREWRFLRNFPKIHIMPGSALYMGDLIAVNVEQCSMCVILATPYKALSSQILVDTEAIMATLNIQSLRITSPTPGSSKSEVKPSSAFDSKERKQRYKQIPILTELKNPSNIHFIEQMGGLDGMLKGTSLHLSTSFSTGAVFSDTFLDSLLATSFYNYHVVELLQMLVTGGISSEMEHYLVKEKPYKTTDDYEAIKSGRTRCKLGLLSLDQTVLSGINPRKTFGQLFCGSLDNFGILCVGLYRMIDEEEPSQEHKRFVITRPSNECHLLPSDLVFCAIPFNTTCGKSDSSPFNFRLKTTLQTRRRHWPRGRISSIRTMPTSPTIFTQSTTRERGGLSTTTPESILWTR
In words: mSlo3 currents expressed in Xenopus oocytes, electrophysiology. In kind it is cell-based. As to the method:
A full-length mSlo3 cDNA was cloned into pBSC-MXT, a Bluescript-derived plasmid (Stratagene) containing Xenopus β-globin 5′ and 3′ untranslated sequences. cDNA expression constructs were linearized at a unique Not-I site, and capped cRNA was synthesized using the mMessage mMachine (Ambion). Reactions were precipitated with LiCl to remove the DNA template and resuspended in nuclease-free water at a final concentration of approximately 1 mg/ml. Oocytes were prepared for injection as previously described (Wei et al., Science 248:599-603 (1990)), except for the use of a Drummond nanojector. Approximately 50 nl of RNA in nuclease-free water was injected into each oocyte. Oocytes were incubated in ND96 medium (Wei et al., 1994, supra) and analyzed 1-8 days after injection.
cRNA (40 nl at approximately […]) was injected into mature Xenopus oocytes; recordings were made 1-8 days later. For whole cell-recording, medium nd96 (concentrations in mM; 96 NaCl, 2 KCl, 1.8 CaCl2, 1 MgCl2, 5 HEPES, pH 7.5) supplemented with 1 mM DIDS (to block endogenous chloride currents) employed as bath solution, or modified as noted in figure legends. Patches were perfused with either 0 Ca^2+ EGTA solutions (160 K gluconate, 34 KOH, 10 HEPES, and 10 EGTA) or Ca^2+-containing (184 K gluconate, 10 KOH, 10 HEPES, 200 mM hemicalcium gluconate) solutions. HCl was used to adjust pH. Pipet solution contained 0.5 K gluconate, 0.5 KCl, 1.1 KOH, 10 HEPES, 159 Na gluconate, and 2 hemiMg gluconate, pH 7.1. Recording. Two-electrode voltage clamp was carried out with a TEV-200 amplifier (Dagan). Patch currents were recorded on either an Axopatch 1B or 200A amplifier (Axon), and digitized at either 3.4, 5 or 10 kHz. Data acquisition and analysis programs were CCURRENT and CQUANT (Dr. Keith Baker) or pClamp6 (Axon). Recordings were made at room temperature except tail currents which were recorded at 11° C. using a Peltier device (Cambion).

The target in a further assay is mSlo1 (Mus musculus, UniProt Q08460). To be noted: mSlo1, comparison value; read-out: EC50 (sensitivity to TEA); cited from earlier work.
mSlo1, sequence (Q08460 whole entry): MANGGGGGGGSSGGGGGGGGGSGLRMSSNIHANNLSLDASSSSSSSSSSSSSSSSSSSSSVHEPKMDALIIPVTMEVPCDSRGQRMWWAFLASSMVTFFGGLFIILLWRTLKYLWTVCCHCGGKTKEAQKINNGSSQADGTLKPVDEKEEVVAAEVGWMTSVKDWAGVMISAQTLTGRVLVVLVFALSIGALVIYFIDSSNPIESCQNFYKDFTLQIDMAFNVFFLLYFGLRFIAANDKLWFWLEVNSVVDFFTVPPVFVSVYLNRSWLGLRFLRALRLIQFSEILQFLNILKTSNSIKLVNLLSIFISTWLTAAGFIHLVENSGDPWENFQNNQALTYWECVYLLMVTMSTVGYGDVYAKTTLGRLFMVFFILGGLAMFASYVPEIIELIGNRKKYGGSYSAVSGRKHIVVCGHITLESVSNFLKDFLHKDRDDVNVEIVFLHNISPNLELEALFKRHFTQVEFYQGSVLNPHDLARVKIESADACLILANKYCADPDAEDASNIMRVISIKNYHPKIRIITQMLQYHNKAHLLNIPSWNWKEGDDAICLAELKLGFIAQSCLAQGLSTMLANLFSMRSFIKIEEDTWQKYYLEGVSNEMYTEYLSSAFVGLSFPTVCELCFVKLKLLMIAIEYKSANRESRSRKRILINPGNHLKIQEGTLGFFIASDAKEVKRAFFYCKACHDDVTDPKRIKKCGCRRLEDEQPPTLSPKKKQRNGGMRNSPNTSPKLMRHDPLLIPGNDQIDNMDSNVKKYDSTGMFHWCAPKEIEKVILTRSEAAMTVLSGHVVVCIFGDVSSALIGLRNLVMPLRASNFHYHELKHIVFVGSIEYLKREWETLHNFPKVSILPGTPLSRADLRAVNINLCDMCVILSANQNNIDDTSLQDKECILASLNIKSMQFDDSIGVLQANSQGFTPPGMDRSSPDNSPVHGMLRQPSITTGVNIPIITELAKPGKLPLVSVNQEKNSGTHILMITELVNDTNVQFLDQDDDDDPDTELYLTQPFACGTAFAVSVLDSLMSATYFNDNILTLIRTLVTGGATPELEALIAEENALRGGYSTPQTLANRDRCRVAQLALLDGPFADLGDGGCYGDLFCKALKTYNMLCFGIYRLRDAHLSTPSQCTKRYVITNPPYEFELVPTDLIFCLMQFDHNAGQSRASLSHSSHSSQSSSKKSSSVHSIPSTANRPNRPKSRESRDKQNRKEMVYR

A value given as a limit tells only on which side of the number the result lay.

Consider charybdotoxin, for which, in the assay with mSlo3 (charybdotoxin 50 nM), the “effect on mSlo3 currents” value is given as “did not affect”.
Turning to `CC[N+](CC)(CC)CC` [TEA], the EC50 on mSlo1 is less than 0.2 mM; at mSlo3 (mSlo3 expressed in Xenopus oocytes, read-out: EC50 (sensitivity to TEA)), roughly 100 mM.
As to “iberiotoxin (QFTDVDCSVSKECWSVCKDLFGVDRGKCMGKKCRCYQ)”, the “effect on mSlo3 currents” value in the assay with mSlo3 (iberiotoxin 20 nM) is “did not affect”.

Usually EC50 stands for the concentration giving half of the maximal effect.
